Measurements as given in paper doi:10.1101/2020.12.18.423546 (bioRxiv, 2020).

Key:
cross-linking = target: the molecule itself; experiment: cross-linking
SEC-MALS = target: the molecule itself; experiment: SEC-MALS

B1: Bax (α2-α5) (human Bax residues D53 to K128 with C62S and C126S mutations) (domain or fragment)
chain: DASTKKLSESLKRIGDELDSNMELQRMIAAVDTDSPREVFFRVAADMFSDGNFNWGRVVALFYFASKLVLKALSTK
cross-linking
  stoichiometry N: 2
SEC-MALS
  stoichiometry N: 4
